Tests used:
[1] = biological target: binding sites in brush border membrane vesicles (BBMV) from midguts of last instar Helicoverpa zea larvae (Helicoverpa zea); experiment: homologous competition on H. zea BBMV
[2] = biological target: binding sites in brush border membrane vesicles (BBMV) from midguts of last instar Helicoverpa armigera larvae (Helicoverpa armigera); experiment: homologous competition on H. armigera BBMV
[3] = biological target: binding sites in brush border membrane vesicles (BBMV) from midguts of last instar Helicoverpa zea larvae (Helicoverpa zea); experiment: homologous competition, 125I-Cry2Ab on H. zea BBMV, LIGAND program
[4] = biological target: binding sites in brush border membrane vesicles (BBMV) from midguts of last instar Helicoverpa armigera larvae (Helicoverpa armigera); experiment: homologous competition, 125I-Cry2Ab on H. armigera BBMV, LIGAND program
[5] = biological target: binding sites in brush border membrane vesicles (BBMV) from midguts of last instar Helicoverpa armigera larvae (Helicoverpa armigera); experiment: direct saturation assay, increasing 125I-Cry2Ab on fixed H. armigera BBMV (0.2 mg/ml)

B1: Cry2Ab toxin (trypsin-activated Cry2Ab2 from recombinant B. thuringiensis strain BtIPS78/11) (ligand)
chain: NAVPLSITSSVNTMQQLFLNRLPQFQMQGYQLLLLPLFAQAANLHLSFIRDVILNADEWGISAATLRTYRDYLKNYTRDYSNYCINTYQSAFKGLNTRLHDMLEFRTYMFLNVFEYVSIWSLFKYQSLLVSSGANLYASGSGPQQTQSFTSQDWPFLYSLFQVNSNYVLNGFSGARLSNTFPNIVGLPGSTTTHALLAARVNYSGGISSGDIGASPFNQNFNCSTFLPPLLTPFVRSWLDSGSDREGVATVTNWQTESFETTLGLRSGAFTARGNSNYFPDYFIRNISGVPLVVRNEDLRRPLHYNEIRNIASPSGTPGGARAYMVSVHNRKNNIHAVHENGSMIHLAPNDYTGFTISPIHATQVNNQTRTFISEKFGNQGDSLRFEQNNTTARYTLRGNGNSYNLYLRVSSIGNSTIRVTINGRVYTATNVNTTTNNDGVNDNGARFSDINIGNVVASSNSDVPLDINVTLNSGTQFDLMNIMLVPTNISPLY
modifications: 125I label (chloramine T method) where used as the labelled ligand
Q: What does the source list for B1?
A: fold difference in concentration of binding sites between Cry2Ab and Cry1Ac [1]: 3 fold; fold higher Kd than Cry1Ac [1]: 35 fold; fold difference in concentration of binding sites between Cry2Ab and Cry1Ac [2]: 3 fold; fold higher Kd than Cry1Ac [2]: 35 fold; Kd [3]: 5.9 nM; Rt (binding site concentration) (pmol/mg BBMV protein) [3]: 2.7; Kd [4]: 3.1 nM; Rt (binding site concentration) (pmol/mg BBMV protein) [4]: 2.5; concentration at which binding reached a maximum [5]: 20 nM; concentration at which the saturation curve deviated from linearity [5]: 5 nM

Reference: patent publication US20110088129A1
